# Measured values as given in patent US20240117018A1.
# Experiments:
# Experiment in all cases: cell-based or functional assay
# [1] = target: Env of HIV-1 pseudovirus THRO4156.18 (HIV-1)
# [2] = target: Env of HIV-1 pseudovirus Ce703010054_2A2 (HIV-1)
# [3] = target: Env of HIV-1 pseudovirus CNE17 (HIV-1)
# [4] = target: Env of HIV-1 pseudovirus Ce1172_H1 (HIV-1)
# [5] = target: Env of HIV-1 pseudovirus ZM135M.PL10a (HIV-1)
# [6] = target: Env of HIV-1 pseudovirus 1394C9G1(Rev-) (HIV-1)
# [7] = target: Env of HIV-1 pseudovirus ZM249M.PL1 (HIV-1)
# [8] = target: Env of HIV-1 pseudovirus 1006_11_C3_1601 (HIV-1)
# [9] = target: Env of HIV-1 pseudovirus PVO.4 (HIV-1)
# [10] = target: Env of HIV-1 pseudovirus CNE53 (HIV-1)
# [11] = target: Env of HIV-1 pseudovirus TRJO4551.58 (HIV-1)
# [12] = target: Env of HIV-1 pseudovirus CNE19 (HIV-1)
# [13] = target: Env of HIV-1 pseudovirus 1056_10_TA11_1826 (HIV-1)
# [14] = target: Env of HIV-1 pseudovirus CNE30 (HIV-1)
# [15] = target: Env of HIV-1 pseudovirus T250-4 (HIV-1)
# [16] = target: Env of HIV-1 pseudovirus Q842.d12 (HIV-1)
# [17] = target: Env of HIV-1 pseudovirus MS208.A1 (HIV-1)
# [18] = target: HIV-1 Env pseudovirus Du156.12 (HIV-1)
# [19] = target: HIV-1 Env pseudovirus WEAU_d15_410_787 (HIV-1)
# [20] = target: HIV-1 Env pseudovirus Ce703010054_2A2 (HIV-1)
# [21] = target: HIV-1 Env pseudovirus WITO4160.33 (HIV-1)
# [22] = target: HIV-1 Env pseudovirus 6041.v3.c23 (HIV-1)
# [23] = target: HIV-1 Env pseudovirus 6535.3 (HIV-1)
# [24] = target: HIV-1 Env pseudovirus SC422661.8 (HIV-1)
# [25] = target: HIV-1 Env pseudovirus 620345.c01 (HIV-1)
# [26] = target: HIV-1 Env pseudovirus C2101.c01 (HIV-1)
# [27] = target: HIV-1 Env pseudovirus CNE5 (HIV-1)
# [28] = target: HIV-1 Env pseudovirus T278-50 (HIV-1)
# [29] = target: HIV-1 Env pseudovirus REJO4541.67 (HIV-1)
# [30] = target: HIV-1 Env pseudovirus CAP45.2.00.G3 (HIV-1)
# [31] = target: HIV-1 Env pseudovirus X2088_c9 (HIV-1)
# [32] = target: HIV-1 Env pseudovirus CAAN5342.A2 (HIV-1)
# [33] = target: HIV-1 Env pseudovirus 6540.v4.c1 (HIV-1)
substance,measurement,setting,value
10E8 (antibody),IC50,[1],0.156 µg/mL
same,IC80,[1],0.884 µg/mL
same,IC50,[2],2.3 µg/mL
same,IC80,[2],8.58 µg/mL
same,IC50,[3],1.11 µg/mL
same,IC80,[3],5.25 µg/mL
same,IC50,[4],0.722 µg/mL
same,IC80,[4],4.82 µg/mL
same,IC50,[5],0.171 µg/mL
same,IC80,[5],1.19 µg/mL
same,IC50,[6],0.963 µg/mL
same,IC80,[6],5.33 µg/mL
same,IC50,[7],1.51 µg/mL
same,IC80,[7],6.29 µg/mL
same,IC50,[8],0.172 µg/mL
same,IC80,[8],3 µg/mL
same,IC50,[9],0.747 µg/mL
same,IC80,[9],> 10 µg/mL
same,IC50,[10],0.326 µg/mL
same,IC80,[10],1.92 µg/mL
same,IC50,[11],0.475 µg/mL
same,IC80,[11],4.78 µg/mL
same,IC50,[12],0.666 µg/mL
same,IC80,[12],6.49 µg/mL
same,IC50,[13],0.134 µg/mL
same,IC80,[13],1.03 µg/mL
same,IC50,[14],1.56 µg/mL
same,IC80,[14],9.84 µg/mL
same,IC50,[15],1.35 µg/mL
same,IC80,[15],8.13 µg/mL
same,IC50,[16],4.19 µg/mL
same,IC80,[16],> 10 µg/mL
same,IC50,[17],0.609 µg/mL
same,IC80,[17],3.72 µg/mL
VRC01 (antibody),IC50 (Titer in TZM.bl cells),[18],0.09 µg/mL
same,IC80 (Titer in TZM.bl cells),[18],0.193 µg/mL
same,IC50 (Titer in TZM.bl cells),[19],0.12 µg/mL
same,IC80 (Titer in TZM.bl cells),[19],0.26 µg/mL
same,IC50 (Titer in TZM.bl cells),[20],0.53 µg/mL
same,IC80 (Titer in TZM.bl cells),[20],1.84 µg/mL
same,IC50 (Titer in TZM.bl cells),[21],0.15 µg/mL
same,IC80 (Titer in TZM.bl cells),[21],0.41 µg/mL
same,IC50 (Titer in TZM.bl cells),[22],0.02 µg/mL
same,IC80 (Titer in TZM.bl cells),[22],0.08 µg/mL
same,IC50 (Titer in TZM.bl cells),[23],0.54 µg/mL
same,IC80 (Titer in TZM.bl cells),[23],2.7 µg/mL
same,IC50 (Titer in TZM.bl cells),[24],0.08 µg/mL
same,IC80 (Titer in TZM.bl cells),[24],0.265 µg/mL
same,IC50 (Titer in TZM.bl cells),[25],> 50 µg/mL
same,IC80 (Titer in TZM.bl cells),[25],> 50 µg/mL
same,IC50 (Titer in TZM.bl cells),[26],0.36 µg/mL
same,IC80 (Titer in TZM.bl cells),[26],1.17 µg/mL
same,IC50 (Titer in TZM.bl cells),[27],0.37 µg/mL
same,IC80 (Titer in TZM.bl cells),[27],1.1 µg/mL
same,IC50 (Titer in TZM.bl cells),[28],> 50 µg/mL
same,IC80 (Titer in TZM.bl cells),[28],> 50 µg/mL
same,IC50 (Titer in TZM.bl cells),[29],0.06 µg/mL
same,IC80 (Titer in TZM.bl cells),[29],0.25 µg/mL
same,IC80 (Titer in TZM.bl cells),[30],> 50 µg/mL
same,IC50 (Titer in TZM.bl cells),[31],> 50 µg/mL
same,IC80 (Titer in TZM.bl cells),[31],> 50 µg/mL
same,IC50 (Titer in TZM.bl cells),[32],0.82 µg/mL
same,IC80 (Titer in TZM.bl cells),[32],2.8 µg/mL
same,IC50 (Titer in TZM.bl cells),[33],> 50 µg/mL
same,IC80 (Titer in TZM.bl cells),[33],> 50 µg/mL
